Source: patent US20220153821A1 (PROTHENA BIOSCIENCES, published 2022)

B1: Hu3D6VHvb4 / Hu3D6VLvb2 (antibody, V domains shown)
VH: EVQLVQSGAEVVKPGATVKISCKASGFTIKDYYLHWVRQRPGKGLEWIGWIDPENGDTIYDPKFQGRVTITADTSTDTAYMELSSLRSEDTAVYYCSTLDFWGQGTLVTVSS
VL: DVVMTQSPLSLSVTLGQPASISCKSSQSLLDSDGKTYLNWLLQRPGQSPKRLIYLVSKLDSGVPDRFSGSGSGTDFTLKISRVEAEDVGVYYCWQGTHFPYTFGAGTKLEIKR
notes: Humanized 3D6 variant, expressed as intact antibody in HEK-293 cells; also called VHvb4/VLvb2
B2: Hu3D6VHvb5 / Hu3D6VLvb3 (antibody, V domains shown)
VH: EVQLVQSGAEVVKPGATVKISCKASGFTIKDYYLHWVRQRPGKGLEWIGWIDPEDGETIYDPKFQGRVTITADTSTDTAYMELSSLRSEDTAVYYCSTLDFWGQGTLVTVSS
VL: DVVMTQSPLSLSVTLGEPASISCRSSQSLLDSDGKTYLNWLQQRPGQSPRRLIYLVSKLDSGVPDRFSGSGSGTDFTLKISRVEAEDVGVYYCWQGTHFPYTFGQGTKLEIKR
notes: Humanized 3D6 variant, expressed as intact antibody in HEK-293 cells; also called VHvb5/VLvb3
B3: Hu3D6VHvb2 / Hu3D6VLvb3 (antibody, V domains shown)
VH: EVQLVQSGAEVVKPGASVKISCKASGFNIKDYYLHWVRQRPGKGLEWIGWIDPENGDTVYDPKFQGRATITADTSTDTAYLELSSLTSEDTAVYFCSTLDFWGQGTLVTVSS
VL: DVVMTQSPLSLSVTLGEPASISCRSSQSLLDSDGKTYLNWLQQRPGQSPRRLIYLVSKLDSGVPDRFSGSGSGTDFTLKISRVEAEDVGVYYCWQGTHFPYTFGQGTKLEIKR
notes: Humanized 3D6 variant, expressed as intact antibody in HEK-293 cells; also called VHvb2/VLvb3
B4: Hu3D6VHvb3 / Hu3D6VLvb2 (antibody, V domains shown)
VH: EVQLVQSGAEVVKPGATVKISCKASGFNIKDYYLHWVRQRPGKGLEWIGWIDPENGDTIYDPKFQGRATITADTSTDTAYMELSSLRSEDTAVYYCSTLDFWGQGTLVTVSS
VL: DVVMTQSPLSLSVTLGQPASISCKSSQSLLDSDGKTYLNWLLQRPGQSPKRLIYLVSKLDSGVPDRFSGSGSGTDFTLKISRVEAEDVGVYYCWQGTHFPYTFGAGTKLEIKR
notes: Humanized 3D6 variant, expressed as intact antibody in HEK-293 cells; also called VHvb3/VLvb2
B5: Hu3D6VHvb5 / Hu3D6VLvb2 (antibody, V domains shown)
VH: EVQLVQSGAEVVKPGATVKISCKASGFTIKDYYLHWVRQRPGKGLEWIGWIDPEDGETIYDPKFQGRVTITADTSTDTAYMELSSLRSEDTAVYYCSTLDFWGQGTLVTVSS
VL: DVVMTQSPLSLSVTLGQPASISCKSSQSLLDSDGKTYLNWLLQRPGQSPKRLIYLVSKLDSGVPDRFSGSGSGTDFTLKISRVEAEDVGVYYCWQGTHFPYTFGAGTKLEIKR
notes: Humanized 3D6 variant, expressed as intact antibody in HEK-293 cells; also called VHvb5/VLvb2
B6: Hu3D6VHvb7 / Hu3D6VLvb3 (antibody, V domains shown)
VH: EVQLVQSGAEVVKPGATVKISCKASGFTIKDYYLHWVRQRPGKGLEWIGWIDPEDGETVYDPKFQGRVTITADTSTDTAYMELSSLRSEDTAVYYCSTLDFWGQGTLVTVSS
VL: DVVMTQSPLSLSVTLGEPASISCRSSQSLLDSDGKTYLNWLQQRPGQSPRRLIYLVSKLDSGVPDRFSGSGSGTDFTLKISRVEAEDVGVYYCWQGTHFPYTFGQGTKLEIKR
notes: Humanized 3D6 variant, expressed as intact antibody in HEK-293 cells; also called VHvb7/VLvb3
B7: Hu3D6VHvb2 / Hu3D6VLvb2 (antibody, V domains shown)
VH: EVQLVQSGAEVVKPGASVKISCKASGFNIKDYYLHWVRQRPGKGLEWIGWIDPENGDTVYDPKFQGRATITADTSTDTAYLELSSLTSEDTAVYFCSTLDFWGQGTLVTVSS
VL: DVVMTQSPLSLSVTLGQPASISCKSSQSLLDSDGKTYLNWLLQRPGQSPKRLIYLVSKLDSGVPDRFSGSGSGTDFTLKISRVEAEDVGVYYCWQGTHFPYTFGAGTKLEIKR
notes: Humanized 3D6 variant, expressed as intact antibody in HEK-293 cells; also called VHvb2/VLvb2
B8: Hu3D6VHvb4 / Hu3D6VLvb3 (antibody, V domains shown)
VH: EVQLVQSGAEVVKPGATVKISCKASGFTIKDYYLHWVRQRPGKGLEWIGWIDPENGDTIYDPKFQGRVTITADTSTDTAYMELSSLRSEDTAVYYCSTLDFWGQGTLVTVSS
VL: DVVMTQSPLSLSVTLGEPASISCRSSQSLLDSDGKTYLNWLQQRPGQSPRRLIYLVSKLDSGVPDRFSGSGSGTDFTLKISRVEAEDVGVYYCWQGTHFPYTFGQGTKLEIKR
notes: Humanized 3D6 variant, expressed as intact antibody in HEK-293 cells; also called VHvb4/VLvb3
B9: Hu3D6VHvb7 / Hu3D6VLvb2 (antibody, V domains shown)
VH: EVQLVQSGAEVVKPGATVKISCKASGFTIKDYYLHWVRQRPGKGLEWIGWIDPEDGETVYDPKFQGRVTITADTSTDTAYMELSSLRSEDTAVYYCSTLDFWGQGTLVTVSS
VL: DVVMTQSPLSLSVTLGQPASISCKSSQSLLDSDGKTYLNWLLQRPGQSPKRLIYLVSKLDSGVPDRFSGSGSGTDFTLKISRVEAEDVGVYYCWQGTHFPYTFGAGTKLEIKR
notes: Humanized 3D6 variant, expressed as intact antibody in HEK-293 cells; also called VHvb7/VLvb2
B10: Hu3D6VHvb6 / Hu3D6VLvb2 (antibody, V domains shown)
VH: EVQLVQSGAEVVKPGATVKISCKASGFTIKDYYLHWVRQRPGKGLEWIGWIDPEDGETVYDPKFQGRVTITADTSTDTAYMELSSLRSEDTAVYFCSTLDFWGQGTLVTVSS
VL: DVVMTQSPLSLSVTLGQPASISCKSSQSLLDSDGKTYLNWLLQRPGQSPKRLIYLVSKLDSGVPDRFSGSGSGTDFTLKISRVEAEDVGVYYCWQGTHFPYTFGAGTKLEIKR
notes: Humanized 3D6 variant, expressed as intact antibody in HEK-293 cells; also called VHvb6/VLvb2
B11: Hu3D6VHvb6 / Hu3D6VLvb3 (antibody, V domains shown)
VH: EVQLVQSGAEVVKPGATVKISCKASGFTIKDYYLHWVRQRPGKGLEWIGWIDPEDGETVYDPKFQGRVTITADTSTDTAYMELSSLRSEDTAVYFCSTLDFWGQGTLVTVSS
VL: DVVMTQSPLSLSVTLGEPASISCRSSQSLLDSDGKTYLNWLQQRPGQSPRRLIYLVSKLDSGVPDRFSGSGSGTDFTLKISRVEAEDVGVYYCWQGTHFPYTFGQGTKLEIKR
notes: Humanized 3D6 variant, expressed as intact antibody in HEK-293 cells; also called VHvb6/VLvb3
B12: Hu3D6VHvb3 / Hu3D6VLvb3 (antibody, V domains shown)
VH: EVQLVQSGAEVVKPGATVKISCKASGFNIKDYYLHWVRQRPGKGLEWIGWIDPENGDTIYDPKFQGRATITADTSTDTAYMELSSLRSEDTAVYYCSTLDFWGQGTLVTVSS
VL: DVVMTQSPLSLSVTLGEPASISCRSSQSLLDSDGKTYLNWLQQRPGQSPRRLIYLVSKLDSGVPDRFSGSGSGTDFTLKISRVEAEDVGVYYCWQGTHFPYTFGQGTKLEIKR
notes: Humanized 3D6 variant, expressed as intact antibody in HEK-293 cells; also called VHvb3/VLvb3
B13: Hu3D6VHvb1 / Hu3D6VLvb1 (antibody, V domains shown)
VH: QVQLQQSGAELVKPGASVKLSCTASGFNIKDYYLHWVKQRPEQGLEWIGWIDPENGDTVYDPKFQGKATITADTSSNTAYLQLSSLTSEDTAVYFCSTLDFWGQGTTLTVSS
VL: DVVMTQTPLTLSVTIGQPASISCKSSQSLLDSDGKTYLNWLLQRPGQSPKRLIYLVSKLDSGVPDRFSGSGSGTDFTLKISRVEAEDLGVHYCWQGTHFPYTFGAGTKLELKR
notes: Humanized 3D6 variant, transiently expressed as intact antibody in HEK-293 cells; also called VHvb1/VLvb1
B14: anti-tau antibody 5G8 (antibody, V domains shown)
VH: EVQLQQSGAELVRSGASVRLSCTASGFNIKDYYMHWVRQRPEQGLEWIGWIDPENGDTVYAPKFQGKATMTSDTSSNTAYLHLSSLTSEDTAVYYCSPLDFWGQGTTLTVSS
VL: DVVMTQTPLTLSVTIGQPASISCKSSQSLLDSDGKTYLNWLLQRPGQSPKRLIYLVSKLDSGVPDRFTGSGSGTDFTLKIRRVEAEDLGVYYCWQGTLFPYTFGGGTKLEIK
B15: 8A4 (antibody, V domains shown)
VH: EVQLQQSGAELVRPGALVKLSCKASGFNIKDYYIHWVKQRPEQGLEWIGWIDPENGDTVYDPQFQDKANITADTSSNTAYLQLSSLTSEGTAVYYCSTLDFWGQGTTLTVSS
VL: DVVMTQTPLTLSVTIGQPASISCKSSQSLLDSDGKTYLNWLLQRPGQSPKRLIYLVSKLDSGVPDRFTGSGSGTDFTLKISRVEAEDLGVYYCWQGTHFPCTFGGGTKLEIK
B16: mouse 3D6 antibody (antibody, V domains shown)
VH: EVQLQQSGADLVRPGALVKLSCKASGFNIKDYYLHWVRQRPEQGLEWIGWIDPENGDTVYDPKFQGKATITADTSSNTAYLQLGSLTSEDTAVYFCSTLDFWGQGTTLTVSS
VL: not shown
notes: Mouse monoclonal antibody from hybridoma; also called murine 3D6; m3D6

Molecular target: T1, recombinant human tau (human, UniProt P10636-6 1-383, limits assumed)
T1 construct: also called recombinant tau
T1 sequence (P10636 other isoform, or with tags, fused parts or gaps limits assumed): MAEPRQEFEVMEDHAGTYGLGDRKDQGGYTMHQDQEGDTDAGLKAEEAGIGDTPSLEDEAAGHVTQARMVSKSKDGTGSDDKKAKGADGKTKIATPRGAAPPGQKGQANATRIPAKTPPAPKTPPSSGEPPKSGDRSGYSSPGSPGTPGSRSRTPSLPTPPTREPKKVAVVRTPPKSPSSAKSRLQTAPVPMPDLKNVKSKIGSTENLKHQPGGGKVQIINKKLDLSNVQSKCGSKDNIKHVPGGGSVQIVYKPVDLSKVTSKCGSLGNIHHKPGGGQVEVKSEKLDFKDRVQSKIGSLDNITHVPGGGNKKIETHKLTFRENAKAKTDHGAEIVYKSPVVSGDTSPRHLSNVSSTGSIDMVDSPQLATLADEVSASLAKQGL
Experiment: SPR, Biacore T200, antibody captured by anti-human antibody, tau as analyte, single cycle, 1:1 fit
Experimental: Affinity of purified humanized variants to tau were determined by surface plasmon resonance (SPR). SPR analysis was performed using a Biacore T200 to determine the binding kinetics of humanized antibodies to recombinant human tau. To prepare a sensor surface, anti-human antibody (GE Life Sciences) was immobilized on sensor chip CM3 via amine coupling, and antibody was captured at a level to ensure maximum binding of 50 RU. Various concentrations of recombinant tau ranging from 50-0.62 nM were passed over the captured ligand at a flow rate of 50 μL/min in running buffer (HBS+0.05% P-20, 1 mg/mL BSA), in a single cycle manner. Data were double-referenced to both an irrelevant sensor not containing antibody ligand, and 0 nM analyte concentration to account for the dissociation of ligand from the capture moiety. Data were then analyzed using a 1:1 fit. Results are presented in Table 9, in columns labeled “k₀ (M⁻¹s⁻¹), koff (s⁻¹), and Kd (nM).”

Which results are given for B1?
Kd: 4.2 nM; koff: 0.0029 s⁻¹; kon: 690000 M⁻¹ s⁻¹

With B2 as the binder, how does the Kd read?
The Kd was 1.4 nM.

And the koff?
Its koff is 0.0028 s⁻¹.

What about the kon of the same binder?
The kon was 2e+06 M⁻¹ s⁻¹.

What does the source list for B3?
Kd: 0.19 nM; koff: 0.0003 s⁻¹; kon: 1.6e+06 M⁻¹ s⁻¹

For B4, which Kd is on record?
The Kd was 1.07 nM.

What about the koff of the same binder?
Its koff is 0.0015 s⁻¹.

And the kon?
Its kon is 1.4e+06 M⁻¹ s⁻¹.

For B5, which Kd is on record?
The Kd was 1.44 nM.

What about the koff of the same binder?
The koff was 0.0026 s⁻¹.

What about the kon of the same binder?
Its kon is 1.8e+06 M⁻¹ s⁻¹.

What does the source list for B6?
Kd: 0.209 nM; koff: 0.00077 s⁻¹; kon: 3.69e+06 M⁻¹ s⁻¹

How did the Kd turn out when B7 was run?
The Kd was 0.04 nM.

And the koff?
The koff was 5.7e-05 s⁻¹.

And the kon?
Its kon is 1.5e+06 M⁻¹ s⁻¹.

What does the source list for B8?
Kd: 3.74 nM; koff: 0.0034 s⁻¹; kon: 910000 M⁻¹ s⁻¹

B9 was tested. Which Kd did it give?
Its Kd is 0.252 nM.

And the koff?
Its koff is 0.000779 s⁻¹.

What about the kon of the same binder?
Its kon is 3.09e+06 M⁻¹ s⁻¹.

Which Kd does the source give for B10 here?
Its Kd is 0.107 nM.

And the koff?
The koff was 0.000369 s⁻¹.

And the kon?
Its kon is 3.45e+06 M⁻¹ s⁻¹.

With B11 as the binder, how does the Kd read?
The Kd was 0.152 nM.

What about the koff of the same binder?
Its koff is 0.000538 s⁻¹.

What about the kon of the same binder?
Its kon is 3.54e+06 M⁻¹ s⁻¹.

With B12 as the binder, how does the Kd read?
Its Kd is 1.13 nM.

And the koff?
Its koff is 0.0018 s⁻¹.

What about the kon of the same binder?
Its kon is 1.6e+06 M⁻¹ s⁻¹.

With B13 as the binder, how does the Kd read?
The Kd was 0.64 nM.

And the koff?
Its koff is 0.0009 s⁻¹.

And the kon?
Its kon is 1.4e+06 M⁻¹ s⁻¹.

Molecular target: recombinant human tau (human, UniProt P10636 1-383)
Sequence (P10636 other isoform, or with tags, fused parts or gaps): as the sequence (P10636 other isoform, or with tags, fused parts or gaps limits assumed) above
Experiment: SPR, Biacore T200: antibody captured on anti-mouse CM5 chip, recombinant human tau 10-0.14 nM as analyte, global 1:1 fit
Experimental: (§1) Methods: SPR analysis was performed using a Biacore T200 to determine the binding kinetics of murine antibodies to recombinant human tau. To prepare a sensor surface, anti-mouse antibody (GE Life Sciences) was immobilized on sensor chip CM5 via amine coupling, and antibody was captured at a level to ensure maximum binding of 50 RU. Various concentrations of recombinant tau ranging from 10-0.14 nM were passed over the captured ligand at a flow rate of 50 μL/min in running buffer (HBS+0.05% P-20, 1 mg/mL BSA), for 180 sec association and 900 sec dissociation. Data were double-referenced to both an irrelevant sensor not containing antibody ligand, and 0 nM analyte concentration to account for the dissociation of ligand from the capture moiety. Data was then analyzed using a global 1:1 fit.
(§2) Results: Multiple murine antibodies were selected based on their performance in a battery of ELISA assays, and their binding affinities were assessed via SPR. Antibodies were tested in parallel sets, and their binding association and dissociation rates were compared to select the highest binder to recombinant human tau.

B14 was tested. Which Kd did it give?
Its Kd is 6.78 nM.

And the koff?
The koff was 0.00254 s⁻¹.

What about the kon of the same binder?
The kon was 375000 M⁻¹ s⁻¹.

How did the Kd turn out when B15 was run?
Its Kd is 3.8 nM.

And the koff?
Its koff is 0.00227 s⁻¹.

And the kon?
The kon was 599000 M⁻¹ s⁻¹.

Molecular target: T1, recombinant human tau
Experiment: as above
Experimental: as §1, §2

With B16 as the binder, how does the Kd read?
Its Kd is 0.46 nM.

And the koff?
Its koff is 0.00119 s⁻¹.

And the kon?
Its kon is 2.58e+06 M⁻¹ s⁻¹.
